Results as given in the DeepSol protein solubility set.

Experiment: soluble on expression in E. coli; label from the status in PepcDB or PDB records

Sequence | soluble on expression in E. coli
MGSDKIHHHHHHMVSCGGDGTLNEVVNGIVNTDLAIAVLPMGTGSDFGKTIGIRNISDFLKAIKSGRTREVDLVAAQFANQSRRYFINILEIGFGAEVMNYVNSHKYLGRGSFKFGAFYMLSKMHPFNLRLIMDGKEYEFPTIEAIFANGRYFGGGMLASPYSEIDDGLLDVHVLKPFSRIRSAMNFRTIYDGSYLNRRICA | not soluble
MGSDKIHHHHHHMVSRYLEHLEHTFSTRLFQRNTRKISLTPAGEKALLYCENILQQQQLLQELAAPEQHNGTIRFTCGLFLFELGVAECIRQFKRQHPHIQFDVYLTESTMDLIDAQVDLALRITQKVADGLIARPVCQIESVFCAHPDYLKQHSPLLHPRQLIQHECIAHHSQHQFWTLFDNEQQPQNYPLNVTFKSNDVNALYDMCLHAQGVAMLPTLLVEKDLKEKRLKALFKNFTAPELSLSVVYASRQHLPRITQEFIAFMIENLDFYLKPQN | not soluble
MGSDKIHHHHHHMVTLEPENKVRKILITDCADAKGLIAKITGVCFAHQLNIIKNTEFVDRIQGRFFMRTVLEGVFDDASLLKALSEVLPAQNHTKLVAADKKRIVVMVTKEAHCLGDLLMKAYYGGLDVDIAAVVGNYDSLRNLTEKFDIPFHHVCHQGLDRLEHEQAILKIVNGYQPDYVVLAKYMRVLTPEFVCAYPDRIINIHHSFLPAFIGASPYKQAWERGVKIIGATAHFVNDCLDEGPIIKQDVISVDHTFSAEEMAHNGRDVEKSVLSKALQLVLNEQVIVYGNKTVVF | not soluble
MGSDKIHHHHHHMVTYVIQGILKEEEDRMVRRSFLIKGNEIAYVNGRLDKLTFIRMNGDQFCMAPGRVMNNDELETNLSISSFKKTLTSMIEKGCTSVVYFASANYERQLPFVIKQAYHRMNNSFIDYVIGLSLPAHLLRPSVLRFCKKEKIPVLRFSLQSIDDLYDVPWSRLQDVLYSYPIVLLPNMNELLEGERKLAEDLWVSLCEAHRIYGTTHPPNSLEAWPKTLLKLVGLYPKKGELRVGGDADYLLYYVARTNATLAETCDLDYDRDKPNVVVLRGSVLKANEVTSIRPGGGRRIRITRPGQFIPVSEASHWGM | not soluble
MGSDKIHHHHHHMVYVGTSGFSFEDWKGVVYPEHLKPSQFLKYYWAVLGFRIVELNFTYYTQPSWRSFVQMLRKTPPDFYFTVKTPGSVTHVLWKEGKDPKEDMENFTRQIEPLIEEQRLKMTLAQFPFSFKFSRKNVEYLEKLRESYPYELAVEFRHYSWDREETYEFLRNHGITFVVVDEPKLPGLFPYRPITTTDYAYFRFHGRNERWFEAEGEERYDYLYSEEELKTLFEDVVELSRRVKETYVFFNNCYKGQAAINALQFKKMLEERV | soluble
MGSDKIHHHHHHMWFRNLLVYRLTQDLQLDADSLEKALGEKSARPCASQELTTYGFTAPFGKGPDAPLVHVSQDFFLISARKEERILPGSVVRDALKEKVDEIEAQQMRKVYKKERDQLKDEIVQTLLPRAFIRRSSTFAAIAPSLGLILVDSASAKKAEDLLSTLREALGSLPVRPLSVKVAPTATLTDWVKTQEAAGDFHVLDECELRDTHEDGGVVRCKRQDLTSEEIQLHLTAGKLVTQLSLAWSDKLSFVLDDKLAVKRLRFEDLLQEQAEKDGGEDALGQLDASFTLMMLTFAEFLPALFEALGGEEIPQGV | not soluble
MGSDKIHHHHHHMYCMEKCVENYFVLNEEIKDKKTFDGNFVENGKSLYEVIRIIDGIPLFLGNHIKRLENSFKIEKLSFPVSLDNIKQNIFKLIEANKCEVGNVKLVFNYFENKCDFYGYFVQHKYPDEYDYINGVKTILYHGERSNPNAKVINLNFRKNVDKKIKEKGVFEAILVDRNGNITEGSKSNIFMVKSNTVYTAPVEDVLPGITREIIVEICKQCGYTVVDEKINYKKIDQFEGLFISGTSPKVLPICQVDDIKFNSQGTEMIRNIRKAYDDYISNYIKNFDSRS | not soluble
MGSDKIHHHHHHMYEENIYIKNSEYEFDNNLKQLASYLNIPVSIVRPYKEDLTLYQYKKGQVIYHSTDQIKFVYFLVNGCILHESSNITGDNYLRLSKDENIFPMNFIFNETPAPYEICTALTDCKILTLPKDLLEYLCRKHNEIFESLFKKLNETIQFQVEYIMALRANSAKERIERILQILCLSIGDDNGEFYELKQIMTVQLISNLSGLNRKTTGEIIRELKTENIIYQDKRNWIIKK | not soluble
